# The RNAGym collection of RNA variant scans (doi:10.1101/gr.219683.116)
# B1: mRNA-splicing (parent)
# chain: AGUUGCUGCUGGGAGCUCCAGCACAGUGAAAUGGACAGAAGGGCAGAGCAA
# Variants of: B1
# Experiment: exon inclusion enrichment index; higher = more inclusion; WT1 exon 5 minigene, HEK293
row,Variant,exon inclusion enrichment index
1,AGUUAACUAUGGGAGCUCCAGCACAGUGAAAUGGACAGAAGGGCAGAGCAA [G5A C6A U7C G8U C9A],0.165
2,AGUGCUAUAUGGGAGCUCCAGCACAGUGAAAUGGACAGAAGGGCAGAGCAA [U4G G5C C6U U7A G8U C9A],0.157
3,AGUGUGGGAUGGGAGCUCCAGCACAGUGAAAUGGACAGAAGGGCAGAGCAA [U4G G5U C6G U7G C9A],0.0442
4,AGUGUACACAGGGAGCUCCAGCACAGUGAAAUGGACAGAAGGGCAGAGCAA [U4G G5U C6A U7C G8A U10A],0.093
5,AGUGACUUUUGGGAGCUCCAGCACAGUGAAAUGGACAGAAGGGCAGAGCAA [U4G G5A G8U C9U],0.369
6,AGUGCACGACGGGAGCUCCAGCACAGUGAAAUGGACAGAAGGGCAGAGCAA [U4G G5C C6A U7C C9A U10C],2.46
7,AGUUAAUCUCGGGAGCUCCAGCACAGUGAAAUGGACAGAAGGGCAGAGCAA [G5A C6A G8C C9U U10C],0.618
8,AGUUAGAGAUGGGAGCUCCAGCACAGUGAAAUGGACAGAAGGGCAGAGCAA [G5A C6G U7A C9A],0.0497
9,AGUUAGUUUUGGGAGCUCCAGCACAGUGAAAUGGACAGAAGGGCAGAGCAA [G5A C6G G8U C9U],0.00331
10,AGUUAGUUAUGGGAGCUCCAGCACAGUGAAAUGGACAGAAGGGCAGAGCAA [G5A C6G G8U C9A],0.00122
11,AGUGCAAGAAGGGAGCUCCAGCACAGUGAAAUGGACAGAAGGGCAGAGCAA [U4G G5C C6A U7A C9A U10A],0.624
12,AGUUAGGGAUGGGAGCUCCUUCACAGUGAAAUGGACAGAAGGGCAGAGCAA [G5A C6G U7G C9A A20U G21U],0.000871
13,AGUUAGGGAUGGGAGCUCCUCCACAGUGAAAUGGACAGAAGGGCAGAGCAA [G5A C6G U7G C9A A20U G21C],0.00185
14,AGUUAGGGAUGGGAGCUCCUACACAGUGAAAUGGACAGAAGGGCAGAGCAA [G5A C6G U7G C9A A20U G21A],0.000815
15,AGUUAGGGAUGGGAGCUCCAGCCUAGUGAAAUGGACAGAAGGGCAGAGCAA [G5A C6G U7G C9A A23C C24U],0.00192
16,AGUUAGGGAUGGGAGCUCCAGCCAAGUGAAAUGGACAGAAGGGCAGAGCAA [G5A C6G U7G C9A A23C C24A],0.00335
17,AGUUAGGGAUGGGAGCUCCAGCCGAGUGAAAUGGACAGAAGGGCAGAGCAA [G5A C6G U7G C9A A23C C24G],0.0142
18,AGUUAAAGAUGGGAGCUCCAGCACAGUGAAAUGGACAGAAGGGCAGAGCAA [G5A C6A U7A C9A],0.386
19,AGUUAGGGAUGGGAGCUCCAGCGCAGUGAAAUGGACAGAAGGGCAGAGCAA [G5A C6G U7G C9A A23G],0.00235
20,AGUUAGGGAUGGGAGCUCCAGCCCAGUGAAAUGGACAGAAGGGCAGAGCAA [G5A C6G U7G C9A A23C],0.00491
21,AGUUAGGGAUGGGAGCUCCAGCGGAGUGAAAUGGACAGAAGGGCAGAGCAA [G5A C6G U7G C9A A23G C24G],0.0109
22,AGUUAGGGAUGGGAGCUCCAGCGAAGUGAAAUGGACAGAAGGGCAGAGCAA [G5A C6G U7G C9A A23G C24A],0.00158
23,AGUUAGGGAUGGGAGCUCCAGCGUAGUGAAAUGGACAGAAGGGCAGAGCAA [G5A C6G U7G C9A A23G C24U],0.000891
24,AGUGUAAGAAGGGAGCUCCAGCACAGUGAAAUGGACAGAAGGGCAGAGCAA [U4G G5U C6A U7A C9A U10A],0.0439
25,AGUUAGAUAUGGGAGCUCCAGCACAGUGAAAUGGACAGAAGGGCAGAGCAA [G5A C6G U7A G8U C9A],0.00788
26,AGUGCCUUUUGGGAGCUCCAGCACAGUGAAAUGGACAGAAGGGCAGAGCAA [U4G G5C G8U C9U],0.642

row,Variant,exon inclusion enrichment index
1,AGUUAGCGACGGGAGCUCCAGCACAGUGAAAUGGACAGAAGGGCAGAGCAA [G5A C6G U7C C9A U10C],0.602
2,AGUGUCCACCGGGAGCUCCAGCACAGUGAAAUGGACAGAAGGGCAGAGCAA [U4G G5U U7C G8A U10C],2.16
3,AGUUAACACCGGGAGCUCCAGCACAGUGAAAUGGACAGAAGGGCAGAGCAA [G5A C6A U7C G8A U10C],1.79
4,AGUUAACACAGGGAGCUCCAGCACAGUGAAAUGGACAGAAGGGCAGAGCAA [G5A C6A U7C G8A U10A],0.063
5,AGUUAGAACCGGGAGCUCCAGCACAGUGAAAUGGACAGAAGGGCAGAGCAA [G5A C6G U7A G8A U10C],0.237
6,AGUUAGGGAUGGGGGCUCCAGCACAGUGAAAUGGACAGAAGGGCAGAGCAA [G5A C6G U7G C9A A14G],0.00241
7,AGUUAGGGAUGGGCGCUCCAGCACAGUGAAAUGGACAGAAGGGCAGAGCAA [G5A C6G U7G C9A A14C],0.000759
8,AGUUAGGGAUGGGUGCUCCAGCACAGUGAAAUGGACAGAAGGGCAGAGCAA [G5A C6G U7G C9A A14U],0.000641
9,AGUUAGUCUCGGGAGCUCCAGCACAGUGAAAUGGACAGAAGGGCAGAGCAA [G5A C6G G8C C9U U10C],0.0763
10,AGUUAAUUUUGGGAGCUCCAGCACAGUGAAAUGGACAGAAGGGCAGAGCAA [G5A C6A G8U C9U],0.0445
11,AGUUAAUUAUGGGAGCUCCAGCACAGUGAAAUGGACAGAAGGGCAGAGCAA [G5A C6A G8U C9A],0.0357
12,AGUUAAAGAAGGGAGCUCCAGCACAGUGAAAUGGACAGAAGGGCAGAGCAA [G5A C6A U7A C9A U10A],0.214
13,AGUGCGGGAUGGGAGCUCCAGCACAGUGAAAUGGACAGAAGGGCAGAGCAA [U4G G5C C6G U7G C9A],0.248
14,AGUUAGGGAUGGGUACUCCAGCACAGUGAAAUGGACAGAAGGGCAGAGCAA [G5A C6G U7G C9A A14U G15A],0.000793
15,AGUUAGGGAUGGGUUCUCCAGCACAGUGAAAUGGACAGAAGGGCAGAGCAA [G5A C6G U7G C9A A14U G15U],0.000762
16,AGUUAGGGAUGGGUCCUCCAGCACAGUGAAAUGGACAGAAGGGCAGAGCAA [G5A C6G U7G C9A A14U G15C],0.00121
17,AGUUAACGCCGGGAGCUCCAGCACAGUGAAAUGGACAGAAGGGCAGAGCAA [G5A C6A U7C U10C],2.4
18,AGUGCGCGCCGGGAGCUCCAGCACAGUGAAAUGGACAGAAGGGCAGAGCAA [U4G G5C C6G U7C U10C],0.681
19,AGUUAGUAAUGGGAGCUCCAGCACAGUGAAAUGGACAGAAGGGCAGAGCAA [G5A C6G G8A C9A],0.00571
20,AGUGCUUCUCGGGAGCUCCAGCACAGUGAAAUGGACAGAAGGGCAGAGCAA [U4G G5C C6U G8C C9U U10C],1.14
21,AGUUAAGUAUGGGAGCUCCAGCACAGUGAAAUGGACAGAAGGGCAGAGCAA [G5A C6A U7G G8U C9A],0.0264
22,AGUGAUAUAUGGGAGCUCCAGCACAGUGAAAUGGACAGAAGGGCAGAGCAA [U4G G5A C6U U7A G8U C9A],0.156
23,AGUUAGGGCUGGGAGCUCCAGCACAGUGAAAUGGACAGAAGGGCAGAGCAA [G5A C6G U7G],0.00284
24,AGUUAGGGAUGGGAGCUCCAGCACAGUGAAAUGGACAGAAGGGCAGAGCAA [G5A C6G U7G C9A],0.00225
25,AGUUAGAAAUGGGAGCUCCAGCACAGUGAAAUGGACAGAAGGGCAGAGCAA [G5A C6G U7A G8A C9A],0.0263
